Results: paper PMC10847126

Legend:
[1] = target: RGA5-HMA (labelled, MST) (rice) (UniProt F7J0N2); assay: MST; […]; 20 mM PBS, 150 mM NaCl, 0.05% Tween-20, pH 7.4; […]
[2] = target: RGA5-HMA5 (recombinant, MST and HDX-MS) (rice) (UniProt F7J0N2); assay: as above

| Substance | Kd [1] | Kd [2] |
| --- | --- | --- |
| AVR-Pia (recombinant, MST) (from UniProt B9WZW9) (natural protein; other documents disagree on this pair) | 35 µM | – |
| AVR-PikD (recombinant, MST and HDX-MS) (natural protein) | – | 12 µM |
